Read-outs that look alike come from different tables or passages of the source.
Experiments:
[1] = target: C.1086 gp120 (HIV-1); assay: ELISA
[2] = target: T1, AE.97CNG2XF gp140CF (HIV-1); assay: ELISA
T1 construct: also called E.97CNGX2F gp140CF

[3] = target: T2, AE.A244 gD+ gp120 (HIV-1); assay: ELISA
T2 construct: domain: gp120; also called AE.A244 gp120gD+

[4] = target: T3, AE.92TH023 gp120 gD+ (HIV-1); assay: ELISA
T3 construct: domain: gp120; also called AE.92TH023 gp12 gD+

[5] = target: B. 681-7 gp140C; assay: ELISA, OD405
[6] = target: T4, B.63521_V1V2 Tags; assay: ELISA, OD405
T4 Env construct: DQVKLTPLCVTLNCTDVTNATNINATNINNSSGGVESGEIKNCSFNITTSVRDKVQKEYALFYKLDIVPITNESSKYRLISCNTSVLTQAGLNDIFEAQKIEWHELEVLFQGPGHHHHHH

[7] = target: T5, B.HXB/BAL gp140CFI (HIV-1, UniProt P04578 33-680); assay: ELISA, OD405
T5 construct: also called B.HxB/Ba gp140 CFI

[8] = target: T6, G.con gp140CF; assay: ELISA, OD405
T6 construct: also called G.con.env03 gp140CF

[9] = target: Con 6 gp120; assay: ELISA, OD405
[10] = target: T7, SIV CPZ US-1 gp140CF (SIVcpz); assay: ELISA, OD405
T7 construct: also called US-1 SIVCPZ gp140CF
T7 chain: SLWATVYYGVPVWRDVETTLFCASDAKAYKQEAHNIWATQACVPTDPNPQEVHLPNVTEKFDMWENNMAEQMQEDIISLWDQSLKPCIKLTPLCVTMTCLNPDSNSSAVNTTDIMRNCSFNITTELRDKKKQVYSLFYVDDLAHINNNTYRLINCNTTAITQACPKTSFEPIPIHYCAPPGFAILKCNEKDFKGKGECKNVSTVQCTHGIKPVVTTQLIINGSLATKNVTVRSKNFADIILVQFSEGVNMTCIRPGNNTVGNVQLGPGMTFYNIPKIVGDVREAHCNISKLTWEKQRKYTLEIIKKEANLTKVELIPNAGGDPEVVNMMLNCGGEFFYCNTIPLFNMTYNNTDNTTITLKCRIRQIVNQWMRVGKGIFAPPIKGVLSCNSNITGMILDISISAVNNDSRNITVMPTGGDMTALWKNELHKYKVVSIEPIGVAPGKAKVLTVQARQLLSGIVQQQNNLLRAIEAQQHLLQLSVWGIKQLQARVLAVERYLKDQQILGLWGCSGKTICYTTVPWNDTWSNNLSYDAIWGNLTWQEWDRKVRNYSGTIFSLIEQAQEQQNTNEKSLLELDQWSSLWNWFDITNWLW

[11] = target: B.63521 gp140C; assay: ELISA, OD405
[12] = target: T8, J08 B.HXB2/BALV1V2 (HIV-1); assay: ELISA
T8 construct: also called J08 B.HXB/BAL V1V2
T8 chain: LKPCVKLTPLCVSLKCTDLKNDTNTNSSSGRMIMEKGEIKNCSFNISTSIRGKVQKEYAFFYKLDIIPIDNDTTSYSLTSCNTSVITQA

[13] = target: 92TH023 gp120 (HIV-1)
[14] = target: B. 684-6 gp140C; assay: ELISA, OD405
[15] = target: T9, C.1086 gp140; assay: ELISA, OD405
T9 construct: also called C.1086gp140C

[16] = target: T1, AE.97CNG2XF gp140CF; assay: ELISA, OD405
[17] = target: B. 681-7 gp140C; assay: ELISA, OD405; remark: listed apart in the source
[18] = target: T10, B.62357 140C; assay: ELISA, OD405
T10 construct: also called B.62357 gp140C

[19] = target: B.040 gp140C; assay: ELISA, OD405
[20] = target: C.CAP206 gp140CF.12 (HIV-1); assay: ELISA, OD405
[21] = target: T5, B.HXB/BAL gp140CFI; assay: ELISA, OD405; remark: listed apart in the source
[22] = target: T6, G.con gp140CF; assay: ELISA, OD405; remark: listed apart in the source
[23] = target: Con 6 gp120; assay: ELISA, OD405; remark: listed apart in the source
[24] = target: B.9021 gp140C (HIV-1); assay: ELISA, OD405
[25] = target: T11, AE.con gp140CF; assay: ELISA, OD405
T11 construct: also called AE.con.env03 gp140CF

[26] = target: B.63521 gp140C; assay: ELISA, OD405; remark: listed apart in the source
[27] = target: T12, B.con gp140CF; assay: ELISA, OD405
T12 construct: also called B.con.env03 gp140CF

B1: CH59 (antibody, V domains shown)
VH: EVQLVESGGGLVQPGRSLRLSCAASGFTFDDGAMHWVRQAPGKGLEWVSGISWNSNIIAYADSVKGRFTISRDNAKNSLYLEMNSLRVEDTALYYCAKDSPRGELPLNYWGQGTLVTVSS
VL: SYELTQPPSVSVSPGQTARITCSGDALPKNYAYWYQQKSGQAPVLVIYEDSKRPSGIPERFSGSSSGTMATLTISGAQVEDEADYYCYSTDSSGNHRVFGGGTKLTVL
notes: also called mAb CH59
0.066 µg/mL: EC50 [2]
0.02 µg/mL: EC50 [1]
no binding (tested: 10 ug/ml): binding result [5] | binding result [6] | binding result [7] | binding result [8] | binding result [9] | binding result [10] | binding result [11]
0.01 µg/mL: EC50 [3]
0.023 µg/mL: EC50 [4]

B2: 697D (antibody, V domains shown)
VH: QVQLVQSGAEVKKPGSSVKVSCKASGGNFNTYTISWVRQAPGQGLEWMGRIIPIFGIVNPAQKFPGRVTINVDKSTNTAYMELSSLRSEDTAVYYCATSGVGLHFGYFDYWGQGTQVTVSS
VL: QSVLTQPPSVSGAPGQRVTISCTGSSSNIGAHYDVHWYQQLPGTAPKLLIYGNSNRPSGVPDRFSGSKSGTSASLAITGLQAEDEADYYCQSYDSSLSGYVFGTGTKVTVL
notes: also called mAb 697D; V2 conformational mAb 697D
0.12 nM: EC50 [12]

B3: PG16 (antibody, V domains shown)
VH: QEQLVESGGGVVQPGGSLRLSCLASGFTFHKYGMHWVRQAPGKGLEWVALISDDGMRKYHSDSMWGRVTISRDNSKNTLYLQFSSLKVEDTAMFFCAREAGGPIWHDDVKYYDFNDGYYNYHYMDVWGKGTTVTVSS
VL: QSALTQPASVSGSPGQTITISCNGTSSDVGGFDSVSWYQQSPGKAPKVMVFDVSHRPSGISNRFSGSKSGNTASLTISGLHIEDEGDYFCSSLTDRSHRIFGGGTKVTVL
notes: also called mAb PG16; bnAb PG16
10 to 100 nM: IC50 [13]

B4: CH58 reverted unmutated ancestor antibody (antibody, V domains shown)
VH: EVQLVQSGAEVKKPGESLKISCKGSGYSFTSYWIGWVRQMPGKGLEWMGIIYPGDSDTRYSPSFQGQVTISADKSISTAYLQWSSLKASDTAMYYCARLGGRYYYDSSGYYYFDYWGQGTLVTVSS
VL: NFMLTQPHSVSESPGKTVTISCTRSSGSIASNYVQWYQQRPGSSPTTVIYEDNQRPSGVPDRFSGSIDSSSNSASLTISGLKTEDEADYYCQSYDSSSWVFGGGTKLTVL
notes: also called CH58 RUA; CH58_RUA
no binding (tested: 10 ug/ml): binding result [14] | binding result [15] | binding result [16] | binding result [17] | binding result [18] | binding result [19] | binding result [20] | binding result [21] | binding result [22] | binding result [23] | binding result [24] | binding result [25] | binding result [26] | binding result [27]
